Experiments:
Assay type in all cases: cell-based, mouse
[1] = test system: splenic γδ T cells; assay: γδ T cell / CD8+ T cell culture with recombinant IL-38; settings: 100 ng/mL daily, day 5, cytometric bead array
Protocol: γδ T cells and CD8+ T cells were isolated from murine spleens by fluorescence-activated cell sorting (FACS) and co-cultured at a ratio of 1:10. The cells were cultured in T-cell medium Roswell Park Memorial Institute (RPMI) 1640 with 5 mM glutamine, 100 U/mL penicillin, 100 µg/mL streptomycin, 10% heat-inactivated fetal calf serum (FCS), 1% non-essential and essential amino acids, 1% sodium pyruvate and 1% 4-(2-hydroxyethyl)-1-piperazineethanesulfonic acid (HEPES) followed by activation with mouse T-cell activator CD3/CD28 Dynabeads (Thermo Fisher Scientific), 10 ng/mL of recombinant murine (rm) IL-23 and rm IL-1β (both from Bio-Techne). Cells were supplemented with 10 ng/mL rm IL-2 (PrepoTech) at days 0, 2 and 5 and daily with 100 ng/mL rm IL-38 (AdipoGen) and 50 μM β-mercaptoethanol. Cells were cultured for up to 5 days. At the endpoint, supernatants were collected for cytokine determination and cell proliferation was analyzed by flow cytometry.
To measure the cytokines in PyMT tumors and cell culture supernatants, Cytometric Bead Array Flex Sets (BD Biosciences) were used for murine IL-17A and IFN-γ. The samples were acquired via FACS and analyzed with FlowJo Software V.10 (Tree Star).

[2] = test system: γδ T cells; assay: Xcl1 production by activated γδ T cells (ELISA); settings: 100 ng/mL, 24 hours
Protocol: γδ T cells isolated from murine spleen were cultured in T-cell medium, activated with mouse T-cell activator CD3/CD28 Dynabeads (Thermo Fisher Scientific), except for the negative control, and supplemented with 10 ng/mL rm IL-2 (PrepoTech), 100 ng/mL rm IL-38 (AdipoGen) and […] β-mercaptoethanol. Supernatants were collected 24 hours after seeding for the determination of Xcl1 levels.
Xcl1 levels were determined from supernatants collected from γδ T-cell cultures using Mouse Xcl1/Lymphotactin DuoSet ELISA Kit (R&D Systems) according to the manufacturer’s instructions.

[3] = test system: cDC1; assay: cDC1 migration, Boyden chamber assay; settings: supernatants of γδ T cells pretreated with IL-38, 2 hours
Protocol: Boyden chamber assays were performed using a 96 well-plate with 4.26 mm transwell inserts with 5.0 µm pore polycarbonate membrane (Corning). Briefly, 1.4×10^4 DC-enriched murine splenocytes (EasySep Mouse Pan-DC Enrichment Kit II, STEMCELL Technologies) were suspended in serum-free RPMI 1640 medium and added to transwell inserts. Supernatants collected after 24 hours of γδ T cells stimulation (described above) were pre-incubated with either 15 µg/mL IgG isotype control (R&D Systems) or 15 µg/mL anti-Xcl1 (R&D Systems) and added to the bottom compartment. Cells were harvested 2 hours later and migrated and non-migrated cells were analyzed by FACS. The percentage of migrated cDC1 was determined by the ratio of migrated/non-migrated cells.

B1: recombinant IL-38: recombinant murine IL-38 (AdipoGen) (protein)
chain: MCSLPMARYYIIKDAHQKALYTRNGQLLLGDPDSDNYSPEKVCILPNRGLDRSKVPIFLGMQGGSCCLACVKTREGPLLQLEDVNIEDLYKGGEQTTRFTFFQRSLGSAFRLEAAACPGWFLCGPAEPQQPVQLTKESEPSTHTEFYFEMSR
[1]
  IFN-γ secretion in γδ T cell / CD8+ T cell co-culture: limited the secretion of IFN-γ
  IL-17 production by splenic γδ T cells: effectively suppressed IL-17 production
[2]
  Xcl1 levels on γδ TCR-dependent activation: suppressed
[3]
  cDC1 migration towards γδ T-cell supernatants: reduced
